Results from US10577428B2, “Anti-factor XI monoclonal antibodies and methods of use thereof” (Oregon Health & Science University, priority 2007, dated 2020).
Entries after “also recorded” stand apart in the source; their conditions may differ. Where two headings read alike, the source gives them in different places.

What was measured:
[1] = test system: FXI; assay: FXI clotting assay in vitro (FXI deficient human plasma, NBP dilutions as standards); format: biochemical, baboon; conditions: serial dilutions of NBP as standards
[2] = test system: normal human plasma (NHP); assay: aPTT and PT in normal human plasma in vitro; format: biochemical; conditions: 0-40 nM
[3] = test system: normal baboon plasma (NBP); assay: aPTT and PT in normal baboon plasma in vitro; format: biochemical; conditions: 0-40 nM
[4] = test system: baboon FXI in plasma; assay: Western blot of baboon / non-human primate plasma; format: binding
Description: Results from a Western Blot study corroborating that anti-factor XI monoclonal antibody 1A6 recognizes Factor XI in human and non-human primate plasma is shown in FIG. 7A.

[5] = test system: third apple (A3) domain of the FXI heavy chain; assay: Immunoblotting of FXI and recombinant FXI/prekallikrein chimeras; format: binding, human; conditions: for FXI domain recognized: immunoblotting of recombinant FXI/prekallikrein chimeras
Experimental: Comparative binding studies for monoclonal antibody 1A6 were conducted using FXI, Prekallikrein (PK), and FXI/PK chimeras involving either the substitution FXI domains with PK domains (FIG. 9) or the substitution of PK domains with FXI domains (FIG. 10).

[6] = target: T1, FXI (Homo sapiens, UniProt P03951); assay: Flow chamber coagulation studies (blood perfused over collagen); format: cell-based
T1 construct: antibody 1A6 recognizes Factor XI in human and non-human primate plasma; from tissue; host or cells: normal human plasma (A4); whole human blood or reconstituted FXII-deficient human blood (A9)
Experimental: Glass capillary tubes were coated with 100 μg/ml Horm collagen (Nycomed Arzenmittel, Munich, Germany). Whole human blood was collected into corn trypsin inhibitor (CTI, 40 μg/ml), discarding the first 1 ml to limit any activation of the coagulation pathway, and then perfused through the tubes at a shear rate of 265 s^−1 for 10 min. […] In separate experiments, washed platelets and RBCs were processed as described (McCarty et al. (2006) J. Thromb. Haemost. 4:1367-1378), and then mixed with FXII deficient human plasma (<1% FXII, Haematologic Technologies, Essex Junction, Vt.) to reach a hematocrit of 40% and platelet count of 300×10^3/μl. […] Recalcified FXII deficient human plasma without RBCs or platelets was also perfused over collagen. Images were obtained by DIC microscopy after three minutes of perfusion with modified Tyrodes buffer.
When whole human blood, which was anticoagulated with CTI to block the function of FXIIa, was perfused over collagen at arterial shear (265 s^−1), platelets were deposited in large aggregates which became enveloped by forming fibrin strands (FIG. 7B). […] The outcome was similar when using reconstituted FXII deficient blood, with or without CTI. […] No fibrin was formed when recalcified FXII deficient human plasma was perfused over collagen. For these experiments, human whole blood, anticoagulated with CTI (40 μg/ml) to inhibit FXIIa, or reconstituted FXII deficient human blood was perfused through collagen coated capillary tubes at a shear rate of 265 s^−1 for 10 minutes. […] Images were obtained via Kohler-illuminated Nomarski differential interference contrast (DIC) microscopy with a Zeiss Axiovert 200M microscope using a Zeiss 63× oil immersion 1.40 NA plan-apochromat lens. Images were captured following three minutes of perfusion with modified Tyrodes buffer using a Zeiss AxioCam with Slidebook 4.0 (Intelligent Imaging Innovations, Inc., Denver, Colo., USA). All experiments were performed at 37° C. Each image in FIG. 7B is representative of 2-3 experiments.

[7] = test system: FXI; assay: FXI procoagulant activity, aPTT and PT after single i.v. bolus in baboons; format: in vivo, baboon
Experimental: The maximum achievable prolongation of the aPTT was about 2.5 fold. FXI:Ag was measured by ELISA using goat anti-human FXI polyclonal capture and detection (horseradish peroxidase conjugated [HRP]) antibodies (Affinity Biologicals, Hamilton, Ontario), which also recognized baboon FXI and its complex with aXIMab. A standard curve was constructed with serial dilutions of NBP, and FXI concentrations were determined in percentage of NBP. Western blots for FXI were performed by size fractionation of 1 μl samples of plasma under non-reducing conditions on 7.5% polyacrylamide-SDS gels, followed by transfer to PVDF membranes. Detection was with a goat-anti-human FXI polyclonal antibody conjugated to HRP and chemiluminescence.
The anticoagulant effect (aPTT) was monitored daily, and thrombosis experiments were performed while the FXI procoagulant activity in the circulating blood was reduced by ≥99%, as assessed by comparing the clotting times to a standard curve generated with FXI deficient human plasma (George King Bio-Medical).

[8] = test system: baboons; assay: Standard template skin bleeding time test (Surgicutt); format: in vivo, baboon
Experimental: The effects of FXI inhibition and aspirin on primary hemostasis in baboons were assessed using the standard template skin bleeding time test (Surgicutt®, International Technidyne Corp). […] All bleeding time measurements were performed by the same expert technician. For indirect assessment of hemostasis, aPTT and PT measurements were also performed.

[9] = CTI (40 μg/ml) whole human blood, aXIMab 20 μg/ml, collagen, 265 s^-1, 10 min
[10] = FXII-inhibited or deficient human blood under flow (FIG. 7B)

B1: aXIMab: neutralizing murine IgG/kappa anti-human FXI monoclonal antibody from hybridoma 1A6; binds A3 domain; VH SEQ ID NO:3, VL SEQ ID NO:5 (antibody, listed as Mus musculus, V domains shown)
VH: QVTLKESGPGILKPSQTLSLTCSFSGFSLSTSGMGVGWIRQPSGKGLEWLAHIWWDDDKYYNPSLKSQLTISKDTSRNQVFLKITSVDAADTATYYCARKRSSVVAHYYAMDYWGQGTSVTVSS
VL: DIVLTQSPASLAVSLGQRATISCKASQSVDYDGDSYLNWYQQKPGQPPKLLIYAASNLESGIPARFSGSGSGTDFTLNIHPVEEEDAATYYCQQSNGDPWTFGGGTKLEIK
[1]
  IC99: 10 nM
[2]
  prothrombin time (PT): without affecting
[2]; concentration-dependent
  activated partial thromboplastin time (aPTT): prolonged
[3]
  prothrombin time (PT): without affecting
[3]; concentration-dependent
  activated partial thromboplastin time (aPTT): prolonged
[4]
  recognition of FXI on Western blot: single band at 160 kDa
[4]; listed as 1A6
  recognition of FXI on Western blot: recognizes
[5]; FXI domains substituted with PK domains (FIG. 9)
  binding to FXI/PK chimeras: bound all FXI/PK chimeras except the chimera in which the A3 domain of FXI was substituted with a PK domain
[5]; PK domains substituted with FXI domains (FIG. 10), listed as 1A6
  binding to FXI/PK chimeras: bound only to chimeras in which the A3 domain of FXI had been inserted; also recorded: bind only to chimeras in which the A3 domain of FXI had been inserted
[5]
  FXI domain recognized: specifically recognized the third apple (A3) domain
[5]; listed as 1A6
  FXI domain recognized: bound to an epitope on the FXI A3 domain
[6]; [9]
  Fibrin deposition: noticeably attenuated
  platelet adhesion: modest reduction
[6]; [10]
  platelet accumulation: reduced
  visible fibrin formation: prevented
[6]; reconstituted FXII deficient human blood, with or without CTI, aXIMab 20 μg/ml
  fibrin formation: interrupted fibrin formation
[7]; 2 mg/kg i.v. bolus, one-stage clotting assay
  day by which all clotting times normalized: ≤ 11 days
[7]; 1 hr after infusion, 2 mg/kg i.v. bolus, 4 baboons, range 98.8-99.5%
  FXI procoagulant activity inhibited: 99.0%
[7]; after aXIMab administration, n=11, PBS vehicle 9.0±0.1 sec
  PT: 9.1 ± 0.1 s
[7]; after aXIMab administration, control 30.5±0.7 sec
  aPTT: 65.6 ± 2.0 s
[7]; all baboons
  PT, differences between groups: no differences
[8]; FIG. 6, compared with no treatment controls
  effect on bleeding time / hemostasis: did not demonstrably impair hemostasis
[8]; vehicle-treated controls 3.4±0.2 min
  standard template bleeding time: 3.5 ± 0.3 min
